Assay results taken from PMC2975540 (Science (New York, N.Y.), 2009).

Experiments:
Nop5mut2 (L143K, V217E) = molecular target: T1, Nop5mut2 (L143K, V217E) (Methanocaldococcus jannaschii, UniProt Q58105 1-414, L143K | V217E); assay: co-sedimentation
T1 sequence (looked up): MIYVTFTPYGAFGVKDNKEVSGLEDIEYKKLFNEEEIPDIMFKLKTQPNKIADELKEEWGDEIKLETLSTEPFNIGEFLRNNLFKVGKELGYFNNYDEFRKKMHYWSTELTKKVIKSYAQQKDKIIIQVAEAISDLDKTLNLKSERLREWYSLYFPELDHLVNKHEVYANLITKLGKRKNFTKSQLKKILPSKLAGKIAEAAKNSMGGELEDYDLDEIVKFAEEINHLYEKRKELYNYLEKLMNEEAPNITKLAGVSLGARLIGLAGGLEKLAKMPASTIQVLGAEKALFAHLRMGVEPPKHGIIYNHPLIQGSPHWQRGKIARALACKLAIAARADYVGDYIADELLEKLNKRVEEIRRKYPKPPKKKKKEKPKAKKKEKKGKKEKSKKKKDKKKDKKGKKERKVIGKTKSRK

[1] = molecular target: T2, Nop5mut4 (D135A, L143K, V217E, E224A) (Methanocaldococcus jannaschii, UniProt Q58105 1-414, D135A | L143K | V217E | E224A); assay: co-sedimentation
T2 sequence (looked up): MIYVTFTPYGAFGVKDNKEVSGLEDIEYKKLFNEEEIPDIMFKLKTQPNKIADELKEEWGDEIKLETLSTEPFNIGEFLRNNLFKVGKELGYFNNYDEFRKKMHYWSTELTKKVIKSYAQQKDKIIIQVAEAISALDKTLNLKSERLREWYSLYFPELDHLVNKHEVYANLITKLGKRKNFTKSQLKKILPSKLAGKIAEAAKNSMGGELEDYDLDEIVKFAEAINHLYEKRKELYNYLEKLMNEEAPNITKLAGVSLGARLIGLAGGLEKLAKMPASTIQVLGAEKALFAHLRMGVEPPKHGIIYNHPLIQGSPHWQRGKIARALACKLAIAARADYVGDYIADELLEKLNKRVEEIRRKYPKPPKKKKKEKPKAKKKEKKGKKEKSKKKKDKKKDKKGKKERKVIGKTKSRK

[2] = molecular target: T3, Methanocaldococcus jannaschii Nop5 (Methanocaldococcus jannaschii, UniProt Q58105 1-414); assay: quantitative amino acid analysis
T3 sequence (looked up): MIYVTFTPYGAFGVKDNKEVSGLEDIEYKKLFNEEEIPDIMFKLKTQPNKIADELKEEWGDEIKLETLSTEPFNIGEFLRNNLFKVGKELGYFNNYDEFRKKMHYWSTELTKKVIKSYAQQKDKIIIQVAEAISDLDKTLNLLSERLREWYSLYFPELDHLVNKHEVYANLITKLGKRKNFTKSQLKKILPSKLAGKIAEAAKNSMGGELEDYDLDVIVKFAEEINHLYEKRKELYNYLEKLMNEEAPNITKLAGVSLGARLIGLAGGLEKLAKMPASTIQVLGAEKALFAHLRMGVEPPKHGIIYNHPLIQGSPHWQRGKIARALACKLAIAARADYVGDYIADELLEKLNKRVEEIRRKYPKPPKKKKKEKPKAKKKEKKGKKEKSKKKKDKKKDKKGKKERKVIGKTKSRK

B1: Methanocaldococcus jannaschii fibrillarin (enzyme, UniProt Q58108 1-230, looked up)
chain: MEDIKIKEIFENIYEVDLGDGLKRIATKSIVKGKKVYDEKIIKIGDEEYRIWNPNKSKLAAAIIKGLKVMPIKRDSKILYLGASAGTTPSHVADIADKGIVYAIEYAPRIMRELLDACAERENIIPILGDANKPQEYANIVEKVDVIYEDVAQPNQAEILIKNAKWFLKKGGYGMIAIKARSIDVTKDPKEIFKEQKEILEAGGFKIVDEVDIEPFEKDHVMFVGIWEGK
binding result (Nop5mut2 (L143K, V217E)): binds
binding result [1]: binds
stoichiometry N [2]: 1
